# Source: PMC11451537, “P2X7 receptors exhibit at least three modes of allosteric antagonism” (Science Advances, 2024)
# B1: full-length, wild-type rat P2X7 receptor (receptor, UniProt Q64663 1-595, looked up)
# chain: MPACCSWNDVFQYETNKVTRIQSVNYGTIKWILHMTVFSYVSFALMSDKLYQRKEPLISSVHTKVKGVAEVTENVTEGGVTKLVHGIFDTADYTLPLQGNSFFVMTNYLKSEGQEQKLCPEYPSRGKQCHSDQGCIKGWMDPQSKGIQTGRCIPYDQKRKTCEIFAWCPAEEGKEAPRPALLRSAENFTVLIKNNIDFPGHNYTTRNILPGMNISCTFHKTWNPQCPIFRLGDIFQEIGENFTEVAVQGGIMGIEIYWDCNLDSWSHRCQPKYSFRRLDDKYTNESLFPGYNFRYAKYYKENGMEKRTLIKAFGVRFDILVFGTGGKFDIIQLVVYIGSTLSYFGLATVCIDLIINTYASTCCRSRVYPSCKCCEPCAVNEYYYRKKCEPIVEPKPTLKYVSFVDEPHIWMVDQQLLGKSLQDVKGQEVPRPQTDFLELSRLSLSLHHSPPIPGQPEEMQLLQIEAVPRSRDSPDWCQCGNCLPSQLPENRRALEELCCRRKPGQCITTSELFSKIVLSREALQLLLLYQEPLLALEGEAINSKLRHCAYRSYATWRFVSQDMADFAILPSCCRWKIRKEFPKTQGQYSGFKYPY
# notes: P2X7 receptor (P2X purinoceptor 7), rat; also called rP2X7; source: HEK293 GNTI- cells, BacMam baculovirus transduction; purified (DDM/CHS solubilisation, TALON resin, HRV 3C digestion, Superdex 200 SEC)
# Molecular target: the molecule itself
# Experiment: cryo-EM structure; purified rP2X7 in 20 mM Hepes pH 7.0, 100 mM NaCl, 0.5 mM C12M (DDM), incubated 1 hour with small-molecule antagonist (about 200 to 400 uM); six antagonist-bound structures at 2.2 to 2.7 A
protein,measurement,value
B1,stoichiometry N,3
